Reference: US20040053310, “Exhaustive selection of RNA aptamers against complex targets” (published 2004)

Target: T1, heat shock factor (HSF) (UniProt P22813 P22813:1-691)
T1 sequence: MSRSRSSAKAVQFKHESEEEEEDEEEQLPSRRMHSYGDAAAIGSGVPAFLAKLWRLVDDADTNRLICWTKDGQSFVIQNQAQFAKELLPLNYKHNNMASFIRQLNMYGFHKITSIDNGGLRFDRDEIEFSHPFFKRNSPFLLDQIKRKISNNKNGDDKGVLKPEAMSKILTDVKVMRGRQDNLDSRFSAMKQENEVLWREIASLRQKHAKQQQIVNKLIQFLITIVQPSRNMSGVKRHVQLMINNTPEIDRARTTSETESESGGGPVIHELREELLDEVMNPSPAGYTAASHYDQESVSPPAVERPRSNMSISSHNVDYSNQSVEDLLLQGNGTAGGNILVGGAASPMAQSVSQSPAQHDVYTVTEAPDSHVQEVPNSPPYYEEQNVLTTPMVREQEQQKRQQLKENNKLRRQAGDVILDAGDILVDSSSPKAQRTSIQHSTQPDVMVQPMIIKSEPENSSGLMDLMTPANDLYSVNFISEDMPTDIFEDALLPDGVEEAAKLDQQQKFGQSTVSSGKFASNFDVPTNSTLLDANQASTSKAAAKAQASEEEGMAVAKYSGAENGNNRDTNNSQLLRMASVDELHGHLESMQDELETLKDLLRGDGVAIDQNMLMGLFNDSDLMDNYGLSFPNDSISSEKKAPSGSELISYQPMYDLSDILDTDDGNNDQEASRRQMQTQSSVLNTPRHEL
Experiment: EMSA; estimated from EMSA data; construct not given
Conditions: tags: fusion construct from E. coli (GST, His or MBP; exact one not specified for this assay); chain copies: 3

B1: RA1-HSF (14-1) (ssRNA)
RNA: GGGAGAAUUCAACUGCCAUCUAGGCAUCGCGAUACAAAAUUAAGUUGAACGCGAGUUCUCCAUCUAGUACUACAAGCUUCUGGACUCGAU
B1 showed a Kd of 20 nM.
